Measured values as given in paper PMC9168619 (The Journal of Biological Chemistry, 2022).

Biological target: T1, Nup98 (human (endogenous in HeLa), UniProt P52948 1-880)
T1 construct: Nup98, the N-terminal product of the autoproteolytic cleavage of the Nup98-Nup96 precursor
T1 sequence (looked up): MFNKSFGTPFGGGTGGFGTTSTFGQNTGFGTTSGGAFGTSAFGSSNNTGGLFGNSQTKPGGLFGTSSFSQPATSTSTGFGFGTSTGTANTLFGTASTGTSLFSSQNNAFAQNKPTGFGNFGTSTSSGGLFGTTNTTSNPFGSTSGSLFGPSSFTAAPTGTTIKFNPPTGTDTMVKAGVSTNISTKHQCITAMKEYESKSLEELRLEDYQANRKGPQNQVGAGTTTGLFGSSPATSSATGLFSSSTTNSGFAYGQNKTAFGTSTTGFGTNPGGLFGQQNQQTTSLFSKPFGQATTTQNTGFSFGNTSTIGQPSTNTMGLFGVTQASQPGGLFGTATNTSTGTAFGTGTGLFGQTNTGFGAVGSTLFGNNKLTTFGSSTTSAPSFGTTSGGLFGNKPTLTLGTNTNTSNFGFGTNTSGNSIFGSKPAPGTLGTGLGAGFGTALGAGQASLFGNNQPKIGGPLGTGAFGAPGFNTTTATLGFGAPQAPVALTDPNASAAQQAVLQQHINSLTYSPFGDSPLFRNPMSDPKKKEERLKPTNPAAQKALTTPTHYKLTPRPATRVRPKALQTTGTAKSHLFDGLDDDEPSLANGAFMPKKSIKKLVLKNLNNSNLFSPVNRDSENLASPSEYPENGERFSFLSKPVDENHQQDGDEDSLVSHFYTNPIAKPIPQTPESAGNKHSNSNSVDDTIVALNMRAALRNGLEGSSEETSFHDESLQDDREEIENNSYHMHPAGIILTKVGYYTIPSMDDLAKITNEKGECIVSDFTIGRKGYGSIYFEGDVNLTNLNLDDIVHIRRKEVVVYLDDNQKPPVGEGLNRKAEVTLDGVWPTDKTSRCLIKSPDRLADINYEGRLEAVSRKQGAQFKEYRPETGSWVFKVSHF
Test: […] 300 mM NaCl, 20 mM Hepes pH 7.4, 0.5% Triton X-100; +4 °C; […]
Conditions: partners not purified

B1: Rae1 (natural protein, human (endogenous in HeLa), UniProt P78406 1-368, looked up)
chain: MSLFGTTSGFGTSGTSMFGSATTDNHNPMKDIEVTSSPDDSIGCLSFSPPTLPGNFLIAGSWANDVRCWEVQDSGQTIPKAQQMHTGPVLDVCWSDDGSKVFTASCDKTAKMWDLSSNQAIQIAQHDAPVKTIHWIKAPNYSCVMTGSWDKTLKFWDTRSSNPMMVLQLPERCYCADVIYPMAVVATAERGLIVYQLENQPSEFRRIESPLKHQHRCVAIFKDKQNKPTGFALGSIEGRVAIHYINPPNPAKDNFTFKCHRSNGTNTSAPQDIYAVNGIAFHPVHGTLATVGSDGRFSFWDKDARTKLKTSEQLDQPISACCFNHNGNIFAYASSYDWSKGHEFYNPQKKNYIFLRNAAEELKPRNKK
notes: Rae1, shuttling mRNA export factor
- stoichiometry N: ~1 Nup98:Rae1
